Data as given in the DeepSol protein solubility set.

Test: soluble on expression in E. coli; label from the status in PepcDB or PDB records

| Sequence | soluble on expression in E. coli |
| --- | --- |
| MSLINRFSVPLLETSTIDLANVASNKIEPETVLTNARILSTYSDRILKDKELWIFKGRIACIKPSGSYKEFFQMDKSKIYEVNNNILAPGLIDPHMHIESSMMTGCAYAEAALLNGTTTIFCDSHEIGNVCDTDGIEWMLQDCRESPISIFLTLPSTIPATNKYLETAGGDLTDKKTAILFDKWPEIKGLGEKMDFVSVCEGNERSHSIISETLKRNLPVSGHVFGREFVAAYAASGITDTHEAEDKLFTNDLLDAGLWIFLRGGNPKTPWNSIKEAIKVITESEASTKRICVCTDDRDADDLFNFGLDWVVRQANTLGINNTTAWSMGSLHPATRFNIDRDYGALGHSRRADIVMINDNLEVLNTWLGGHLAVENKKITSLIDKQLSENRYQYPKRAYNTVILPKKINFIPDMPKESEFKINVIKTELPGIMTFKETIHIKEGHHHHHH | soluble |
| MGKVILVTGVSRGIGKSIVDVLFSLDKDTVVYGVARSEAPLKKLKEKYGDRFFYVVGDITEDSVLKQLVNAAVKGHGKIDSLVANAGVLEPVQNVNEIDVNAWKKLYDINFFSIVSLVGIALPELKKTNGNVVFVSSDACNMYFSSWGAYGSSKAALNHFAMTLANEERQVKAIAVAPGIVDTDMQVNIRENVGPSSMSAEQLKMFRGLKENNQLLDSSVPATVYAKLALHGIPDGVNGQYLSYNDPALADFMP | soluble |
| MEPPLTVGAWTMTADSTVTEPIAAAATTTIVADVAIVGGGLAGSLAAAVLARAGHRVALVDKRAVYPDEFRVEKIGGPQLEMFRRLGFIRGLASVACPYDQVLNVREGKVVDVSVGQAYGLPYAGLVAMARGQIPDPSSLIVDEVTAVTCSDDVQHLELASGRRLNARLVVLATGMAGALGYKLGIRRRVLAAGHSVSFGFTIVRRDGTPFDFKALTCYGERTSDGVDYLSLFPVPAGMRANLFMFRDPTDPVMRDLRRDTEATVLRLLPGLQPYLGDFRVTDRVQNWVMDLSVVEGHLQPGVVLIGDAFQTNCPAAGTGVARLLVDVERLCTEYAPRWLATEGMGKEKISEFYSDRDKIAADQQSLKMARFRQALTSRDDISWDVRRRLHFLRRSITHRVDQMRPGWLAQVRSALRALEHHHHHH | not soluble |
| MGDFREVLFYHSETKHYPYRFARSLGYLDWENQPNPFRFWEGTERLDLPLLKDPSHPYEALYDYGLVNTEEFNVKSLSKFLELALGLSAWKAIPGSRWSVRMNPSSGNLHPTECYVIIPHLGGLQGVFHYNPFLHALEKRADIPYELSQKIKDFFGTEGFILILTSIPWRESWKYGERAYRYCLLDTGHAIGSVRFSANLKGWKVKYLNALSDKDLEILLGFDRVQWVEGEEEFPELALFVFPKEVQDVPRTIPESIINEFKKLNFYGRPNVLSKERVIWEIIYRAIKETEKPRTEEFRVIYGNPPILNLVPSYMSAEEVIRKRRSGMAYDGKTYILRELFIHALDKTLPRDNYSPFDVEIGLPFVNLFIFVNRVENLPKGLYCFVRNEELLKDLKEITSSEFLWEKVFEDFPLYLLKTGDFREVAGFVACAQDIASDSAFSLGMISLFEPVLREEPWFYRNLHWEAGLIGQVLYLEATAHNLNGTGIGCFFDDAMHEVLGISDKTFQDLYHFTFGKAVEDPRIQTIEPYYHLKRERR | not soluble |
| MGSDKIHHHHHHMALSADSRLQFTSDLNICRILNGMWQVSGGHGKINAPAAIKTMFQYVDAGFTTWDLADHYGPAEDFIGEFRRQLVANRGKEALANIQAFTKWVPRPGRMTKKLVEENIDISRRRMDVESLDLMQFHWWDYQDKNYLDALKYMAELQTEGKIKHLALTNFDTEHLQIITEAGIKIVSNQVQFSLVDRRPEVNMVKFCQQHDIKLFTYGTLCGGLLSEKYIGKPEPRGFDLGTTSLRKYKNMVDAWGGWHLFQELLSTLKQIADKHGVSIANVATRYILDKPAVGGVIVGARLGISEHIADNAKVFSFTLDAEDSNVINTISSQSRDLYQLIGDCGDEYRR | not soluble |
| MAFADIVRSVENRTNAATLNWSIKNGWKPEVTGFSGYGSGRRVRVLARVLMSNPENLLVDAPSQSITQQAQRGWRQFFTIQVPNLPVTVTVGGKTVTSSTNDNGYVDLLVEDHNLDPGWHTIQIQAEGSTPAEARVLIVENTARIGLISDIDDTIMVTWLPRALLAAWNSWVLHTKTRKPVPGMNRFYEELLKDHPDAPVFYLSTGAWNTFETLQEFINKHALPDGPMLLTDWGPTPTGLFRSGQEHKKVQLRNLFIEYPDMKWILVGDDGQHDPLIYGEAVEEHPNRIAGVAIRELSPGEHVLSHGTTASLSTITTNGGQGVPVVHGRDGYELLQRYETKPFALEHHHHHH | soluble |
| MGGGRMGQHVETLVIGAGPAGLTTAYTLAKAGRGVTVLEMDETYVGGISRTVDYKGFKFDIGGHRFFSKSQEIVDLWNEILPDDFIDRPRLSRIYYREKFYAYPLKAFEALANLGVWTAAKCMASFGWAKLTPIAAPTTFHQWVRNQFGEKLFSIFFKTYTEKVWGMSCDEISADWASQRIKGLDLGAAIIDGVKRSLGLRGKAAEGGPKTLIESFRYPRKGPGMMWEACADKVMALGGDVRMGRKVDGLHFDKIAKLWTVAVTCADGRKEIYTADNVVSSAPIRELMQSISPTPISVFHAGELMYRDFITVVLIGKPQKELPDNWIYIHDPSVKVGRVQNFRSWSPEMIPDGVSTCLGLEYFCFEGDGLWVTSDEELVAQAKREIGKIGLMAPADVYDACVVRQHKAYPVYDDAYAEHVKMIRLDLKMHFPGLHLVGRNGMHKYNNQDHAMMTGLLTAENIIAGETLHDVWEVNEDAEYGEAGVSGARQALRSERAVPTKVAALEHHHHHH | not soluble |
| MGSDKIHHHHHHMNDSATQLTSTGSLTLRHLEAVTMDKAPTFTVKRIAFDEHYLPAENTRITTNFANLARGANRQQNLRNTLTMINNRFNALAHWDNPEHDRYRVELDIISVEMNLESAQYGNALPLIEILKTYIVDRKNNTRLEGMVGNNFSSYVRDYDFSVLLLEHNKHRSTFSTPDHFGELHGNLFKCFVNSQTYQEHFSKPPVICLSVSSSRTYLRTENQHPVLGVEYQQDEYSLTDEYFKKMGLTVRYFMPPNSVAPLAFYFAGDLLADYTDLELISTISTMDTFQKIYRPEIYNANSPAGKAYQPSLKNQDYSLTRIVYDREERSRLAIEQGKFAEEQFVKPYQATLAQWSAQYAR | not soluble |
| MLKCAVDEAAGGRAQAFVSSGDNIGGSPFQSSILGDEPTLEALNQMGLDYSAVGNHEFDKGYADLSSRVADLADFDYLGANVEGENPDLAPYGISHLDGVKVAFVGTVSQETPMLVNSEGIEGITFTDPLEATNRVADELVGSGAADVVVALYHEGITGTEAWSENIDVVFAGHTH | not soluble |
| MSLPKPQLRIIAGDFEDPRIIALLAHHFATMRSTGPEESCHVMPLGTMRQADLDFFAAWDGDALAGFGAVKQLGDGHGEIKSMHTAAAYRGRGVGQAVLDHLSTHARALGLQRLSLETGAGDFFVPARAMYARNGFQTCDPFGDYKPDPNSVFMTRMLEGHHHHHH | not soluble |
| MKVNTWFGVLELDSNGKTLSSEVFPKDIRELALRSLSLRESRQNLPPEGFDLKTAALECGFTESLSEYYSLLHKVTLETVKLQVSQALTPDQRIIQAVEALDDINETTNSLSERLFEWYGGYFPESGLSGEELAVFISRYGSRENLPPEDPHYLKAKNSMGAKLEAADEVLLKGLAESVCSLYERRKQIEAYIESSMEILAPNLALLAGPMLGARLISIAGSLEKLAAFPSSTIQVIGASKALFKHLRSRAPSPKHGIIYSHPLINTSPWWVRGKVARALAAKLSLAARIDFYSAKRNPSLENELEEKIRKIRAENPRPPQKRQEIRAKPKKKRRKLEHHHHHH | soluble |
| MKKILLCCSAGMSTSMLVKKMQQAAESKGIECKIDALSVNAFEEAIQEYDVCLLGPQVRFQLEELRKTADEYGKNIAAISPQAYGMMKGDEVLQQALDLIN | not soluble |
| MGRIAVIGAGVAALAAARSLVLAGRRPLLIAPDREVISRGETLSPAAAALLDRLQWADLLDADSALPSEGRFSVWGDATLRQAAQGVGAWHLDRARFERQMRAKLDNDAIECHPIIVTMLVHHCDGVVLELGDGRVVFADAAIDCSGRAAVSSGAAAGRRRTDRLVAVWRVLDLPDDTEPAAATLIEAVPLGWWYMAPLPGDRMMLGLFTDTDLVPPGAAQDGATWTGLAASTVAIAPRLRSLGLDVSAAREPPQVAPAATVTASRLIEGRILRAGDAAAALDPLGANGLATALWSGMAAAEAALTLTEGEPERADAYERDYLQGIAQHLVSQQAMYAAEPRFADAPFWQRRRAVVSSHPQKETLPLEHHHHHH | not soluble |
| SAEKLFTPLKVGAVTAPNRVFMAPLTRLRSIEPGDIPTPLMGEYYRQRASAGLIISEATQISAQAKGYAGAPGLHSPEQIAAWKKITAGVHAEDGRIAVQLWHTGRISHSSIQPGGQAPVSASALNANTRTSLRDENGNAIRVDTTTPRALELDEIPGIVNDFRQAVANAREAGFDLVELHSAHGYLLHQFLSPSSNQRTDQYGGSVENRARLVLEVVDAVCNEWSADRIGIRVSPIGTFQNVDNGPNEEADALYLIEELAKRGIAYLHMSETDLAGGKPYSEAFRQKVRERFHGVIIGAGAYTAEKAEDLIGKGLIDAVAFGRDYIANPDLVARLQKKAELNPQRPESFYGGGAEGYTDYPSL | soluble |
| GPGSMDTRDRPLPRTPPLQTPRGSCHPPLLTVEEDVRRAGQVRQVRPTKELNCRHQTSLQLYREHRRCEAEGFKERRVILRVWVLHGQHAPGGHTRPHPTGAQDRDAQAPQLRRAVESRLSPTHYEAEGDGRLNRRHHTTTACSHQRPHILRHIRRGNKDVAP | not soluble |
| MDWLLTPGPVRLHPKALEALARPQLHHRTEAAREVFLKARGLLREAFRTEGEVLILTGSGTLAMEALVKNLFAPGERVLVPVYGKFSERFYEIALEAGLVVERLDYPYGDTPRPEDVAKEGYAGLLLVHSETSTGALADLPALARAFKEKNPEGLVGADMVTSLLVGEVALEAMGVDAAASGSQKGLMCPPGLGFVALSPRALERLKPRGYYLDLARELKAQKEGESAWTPAINLVLAVAAVLEEVLPRLEEHLALKAWQNALLYGVGEEGGLRPVPKRFSPAVAAFYLPEGVPYARVKEAFAQRGAVIAGGQGPLKGKVFRLSLMGAYDRYEALGVAGMFREVLEEILPAS | soluble |
| MKVVPAQRCVYSFSANMAPVEEVYPGEQVVFETLDALGGSYDKIDFSKVNPATGPVFVNGVKPGDTLKVRIKRIELPRRGMIVTGKGFGVLGDEVEGFHTKELEIEKWAVLFDGVRIPIHPMVGVIGVAPQEGEYPTGTAHRHGGNMDTKEITENVTVHLPVFQEGALLALGDVHATMGDGEVCVSACEVPAKVVVEIDVSKEEIKWPVVETNDAYYIIVSLPDIEEALKEVTRETVWFIQRRKTIPFTDAYMLASLSVDVGISQLVNPAKTAKARIPKYIFTGVLEHHHHHH | not soluble |
| MLPIIYSLRNCPYAMRARLAIFKAKQAVLLRDLVLSHKPAEMIAVSPKGTVPVLVLANSTVIEESLEVMLWALQQTDPDDLLHCQQEGALPEMLSLINEFDNGFKTSLEAYKCAKRYQEDNIAQCRVVCQQYIEQLEQRLTEHMFLMSDKESLADIALVPFIRQFARVERQWYLQSPYPRVRRWLNSYLQSPVFTKVMAKHPLWLDNQQDILFGVN | not soluble |
